The labels stand for the following.
B1: zFGF5 (ligand)
chain: EENVDFRIHVENQTRARDDVSRKQLRLYQLYSRTSGKHIQVLGRRISARGEDGDKYAQLLVETDTFGSQVRIKGKETEFYLCMNRKGKLVGKPDGTSKECVFIEKVLENNYTALMSAKYSGWYVGFTKKGRPRKGPKTRENQQDVHFMKRYPKGQPELQKPFKYTTVTKRSRRIRPTHPA

Where “and” joins values, the source holds several entries; their conditions need not be identical. Equal entries are not always repeated.

Test in all cases: cell-based or functional assay
The target of assay [1] is FGFR2α-IIIb.
The target of assay [2] is FGFR1α-IIIc.
In assay [3] the target is FGFR2α-IIIc.
Assay [4] has as its target FGFR3α-IIIb.
The target of assay [5] is FGFR1α-IIIb.
Assay [6] has as its target FGFR3α-IIIc.
Assay [7] concerns the target FGFR2α-IIIc. The source holds these as a separate data set.
The target in assay [8] is FGFR3α-IIIc. This is another data set of the same source.
Assay [9] has as its target B1.

As to B1, in assay [1], the “Alamar Blue Units (cell proliferation), zFGF5 at 1.6 ng/ml” value (“Alamar Blue Units … at 1.6 ng/ml” below) turned out to be 0.2 Alamar Blue Units; the “Alamar Blue Units (cell proliferation), zFGF5 at 3.1 ng/ml” value (shortened to “Alamar Blue Units … at 3.1 ng/ml”) was 0.06 Alamar Blue Units; the “Alamar Blue Units (cell proliferation), zFGF5 at 6.2 ng/ml” value (“Alamar Blue Units … at 6.2 ng/ml” for short) came out at 0 Alamar Blue Units; the “Alamar Blue Units (cell proliferation), zFGF5 at 12.5 ng/ml” value (“Alamar Blue Units … at 12.5 ng/ml” below) worked out at 0.4 Alamar Blue Units. Moreover, in assay [1], the “Alamar Blue Units (cell proliferation), zFGF5 at 25 ng/ml” value (“Alamar Blue Units … at 25 ng/ml” below) was found to be 0.2 Alamar Blue Units; the “Alamar Blue Units (cell proliferation), zFGF5 at 50 ng/ml” value (from here on “Alamar Blue Units … at 50 ng/ml”) was found to be 0.5 Alamar Blue Units; the “Alamar Blue Units (cell proliferation), zFGF5 at 100 ng/ml” value (shortened to “Alamar Blue Units … at 100 ng/ml”) turned out to be 1.3 Alamar Blue Units; the “Alamar Blue Units (cell proliferation), zFGF5 at 200 ng/ml” value (“Alamar Blue Units … at 200 ng/ml” for short) came out at 1.3 Alamar Blue Units. Further, in [2], the “Alamar Blue Units … at 1.6 ng/ml” value was determined as 2.6 Alamar Blue Units; the “Alamar Blue Units … at 3.1 ng/ml” value is 4.2 Alamar Blue Units; the “Alamar Blue Units … at 6.2 ng/ml” value stood at 14.2 Alamar Blue Units; the “Alamar Blue Units … at 12.5 ng/ml” value was determined as 29.9 Alamar Blue Units. Besides, in assay [2], the “Alamar Blue Units … at 25 ng/ml” value came to 86 Alamar Blue Units; the “Alamar Blue Units … at 50 ng/ml” value worked out at 224 Alamar Blue Units; the “Alamar Blue Units … at 100 ng/ml” value amounted to 488 Alamar Blue Units; the “Alamar Blue Units … at 200 ng/ml” value stood at 912 Alamar Blue Units. In addition, in [3], the “Alamar Blue Units … at 1.6 ng/ml” value was 241 Alamar Blue Units; the “Alamar Blue Units … at 3.1 ng/ml” value is 480 Alamar Blue Units; the “Alamar Blue Units … at 6.2 ng/ml” value was 715 Alamar Blue Units; the “Alamar Blue Units … at 12.5 ng/ml” value was 977 Alamar Blue Units. Besides, in assay [3], the “Alamar Blue Units … at 25 ng/ml” value was found to be 1310 Alamar Blue Units; the “Alamar Blue Units … at 50 ng/ml” value came out at 1520 Alamar Blue Units; the “Alamar Blue Units … at 100 ng/ml” value stood at 1720 Alamar Blue Units; the “Alamar Blue Units … at 200 ng/ml” value is 1790 Alamar Blue Units. Besides, in assay [4], the “Alamar Blue Units … at 1.6 ng/ml” value came out at 0 Alamar Blue Units; the “Alamar Blue Units … at 3.1 ng/ml” value is 0 Alamar Blue Units; the “Alamar Blue Units … at 6.2 ng/ml” value is 0 Alamar Blue Units; the “Alamar Blue Units … at 12.5 ng/ml” value is 0 Alamar Blue Units. Besides, in [4], the “Alamar Blue Units … at 25 ng/ml” value came to 1.4 Alamar Blue Units; the “Alamar Blue Units … at 50 ng/ml” value is 19 Alamar Blue Units; the “Alamar Blue Units … at 100 ng/ml” value was 189 Alamar Blue Units; the “Alamar Blue Units … at 200 ng/ml” value stood at 472 Alamar Blue Units. In assay [5], the “Alamar Blue Units … at 1.6 ng/ml” value was found to be 0 Alamar Blue Units; the “Alamar Blue Units … at 3.1 ng/ml” value came to 1.7 Alamar Blue Units; the “Alamar Blue Units … at 6.2 ng/ml” value was found to be 1.3 Alamar Blue Units; the “Alamar Blue Units … at 12.5 ng/ml” value came out at 0 Alamar Blue Units. Further, in assay [5], the “Alamar Blue Units … at 25 ng/ml” value worked out at 10.9 Alamar Blue Units; the “Alamar Blue Units … at 50 ng/ml” value was 0 Alamar Blue Units; the “Alamar Blue Units … at 100 ng/ml” value is 0 Alamar Blue Units; the “Alamar Blue Units … at 200 ng/ml” value was found to be 0 Alamar Blue Units. For the same molecule, in assay [6], the “Alamar Blue Units … at 1.6 ng/ml” value is 1400 Alamar Blue Units; the “Alamar Blue Units … at 3.1 ng/ml” value was 2000 Alamar Blue Units; the “Alamar Blue Units … at 6.2 ng/ml” value is 2580 Alamar Blue Units; the “Alamar Blue Units … at 12.5 ng/ml” value is 3200 Alamar Blue Units. Further, in [6], the “Alamar Blue Units … at 25 ng/ml” value was 3760 Alamar Blue Units; the “Alamar Blue Units … at 50 ng/ml” value was 3960 Alamar Blue Units; the “Alamar Blue Units … at 100 ng/ml” value is 4120 Alamar Blue Units; the “Alamar Blue Units … at 200 ng/ml” value turned out to be 4200 Alamar Blue Units. The “EC50 of cell proliferation response” value in assay [7] is ~10 ng/mL and ~20 ng/mL. For the same molecule, in assay [8], the “EC50 of cell proliferation response” value was ~1 ng/mL and ~2 ng/mL.

B2: FGFR3α-IIIc/Fc (Fc fusion, not shown: a dimerising Fc or GST; small tags and cut ends)
chain: ESLGTEQRVVGRAAEVPGPEPGQQEQLVFGSGDAVELSCPPPGGGPMGPTVWVKDGTGLVPSERVLVGPQRLQVLNASHEDSGAYSCRQRLTQRVLCHFSVRVTDAPSSGDDEDGEDEAEDTGVDTGAPYWTRPERMDKKLLAVPAANTVRFRCPAAGNPTPSISWLKNGREFRGEHRIGGIKLRHQQWSLVMESVVPSDRGNYTCVVENKFGSIRQTYTLDVLERSPHRPILQAGLPANQTAVLGSDVEFHCKVYSDAQPHIQWLKHVEVNGSKVGPDGTPYVTVLKTAGANTTDKELEVLSLHNVTFEDAGEYTCLAGNSIGFSHHSAWLVVLPAEEELVEADEAGSVYAG
Consider B2, for which, in [9], the “Cell Proliferation (percent of control), BAF3/FGFR3α-IIIc cells with zFGF5, soluble receptor at 0 fold-excess” value was 100 percent of control; the “Cell Proliferation (percent of control), BAF3/FGFR3α-IIIc cells with zFGF5, soluble receptor at 0.8 fold-excess” value is 85 percent of control; the “Cell Proliferation (percent of control), BAF3/FGFR3α-IIIc cells with zFGF5, soluble receptor at 1.6 fold-excess” value was 66 percent of control; the “Cell Proliferation (percent of control), BAF3/FGFR3α-IIIc cells with zFGF5, soluble receptor at 3.2 fold-excess” value is 37 percent of control. In [9], the “Cell Proliferation (percent of control), BAF3/FGFR3α-IIIc cells with zFGF5, soluble receptor at 6.3 fold-excess” value is 5 percent of control; the “Cell Proliferation (percent of control), BAF3/FGFR3α-IIIc cells with zFGF5, soluble receptor at 12.5 fold-excess” value is 1 percent of control; the “Cell Proliferation (percent of control), BAF3/FGFR3α-IIIc cells with zFGF5, soluble receptor at 25 fold-excess” value is 0.2 percent of control; the “Cell Proliferation (percent of control), BAF3/FGFR3α-IIIc cells with zFGF5, soluble receptor at 50 fold-excess” value was 0 percent of control. Moreover, in assay [9], the “Cell Proliferation (percent of control), BAF3/FGFR3α-IIIc cells with zFGF5, soluble receptor at 100 fold-excess” value was 0 percent of control.

B3: FGFR1α-IIIc/Fc (Fc fusion, not shown: a dimerising Fc or GST; small tags and cut ends)
chain: RPSPTLPEQAQPWGAPVEVESFLVHPGDLLQLRCRLRDDVQSINWLRDGVQLAESNRTRITGEEVEVQDSVPADSGLYACVTSSPSGSDTTYFSVNVSDALPSSEDDDDDDDSSSEEKETDNTKPNRMPVAPYWTSPEKMEKKLHAVPAAKTVKFKCPSSGTPNPTLRWLKNGKEFKPDHRIGGYKVRYATWSIIMDSVVPSDKGNYTCIVENEYGSINHTYQLDVVERSPHRPILQAGLPANKTVALGSNVEFMCKVYSDPQPHIQWLKHIEVNGSKIGPDNLPYVQILKTAGVNTTDKEMEVLHLRNVSFEDAGEYTCLAGNSIGLSHHSAWLTVLEALEERPAVMTSPLYLE
As for B3, in assay [9], the “Cell Proliferation (percent of control), BAF3/FGFR3α-IIIc cells with zFGF5, soluble receptor at 0 fold-excess” value was 100 percent of control; the “Cell Proliferation (percent of control), BAF3/FGFR3α-IIIc cells with zFGF5, soluble receptor at 7.5 fold-excess” value was 92 percent of control; the “Cell Proliferation (percent of control), BAF3/FGFR3α-IIIc cells with zFGF5, soluble receptor at 15.4 fold-excess” value is 96 percent of control; the “Cell Proliferation (percent of control), BAF3/FGFR3α-IIIc cells with zFGF5, soluble receptor at 31 fold-excess” value was 99 percent of control. Besides, in assay [9], the “Cell Proliferation (percent of control), BAF3/FGFR3α-IIIc cells with zFGF5, soluble receptor at 62.5 fold-excess” value was 104 percent of control; the “Cell Proliferation (percent of control), BAF3/FGFR3α-IIIc cells with zFGF5, soluble receptor at 125 fold-excess” value is 101 percent of control; the “Cell Proliferation (percent of control), BAF3/FGFR3α-IIIc cells with zFGF5, soluble receptor at 250 fold-excess” value is 100 percent of control; the “Cell Proliferation (percent of control), BAF3/FGFR3α-IIIc cells with zFGF5, soluble receptor at 500 fold-excess” value is 102 percent of control. In assay [9], the “Cell Proliferation (percent of control), BAF3/FGFR3α-IIIc cells with zFGF5, soluble receptor at 1000 fold-excess” value was 92.3 percent of control.

The values are drawn from patent publication US20050043234A1 (published 2005).
